Publication PMC6153374

Molecular target: E. coli derived recombinant CRM197 (cross reacting material 197) (Corynebacterium diphtheriae C7 (β197))
Test: crystal structure; sitting drop, room temperature; 22.9 mg/ml protein in 0.15 M NaCl, 0.01 M Tris/HCl pH 8.3 mixed 1:1 with 0.2 M lithium sulfate, 0.1 M Bis-Tris pH 5.5, 25% (w/v) PEG 3350; data at 100 K; four molecules in the asymmetric unit (two domain-swapped dimers)

Substance “E. coli derived recombinant CRM197 (cross reacting material 197) (natural protein)” has a stoichiometry N of 2.
